Measured values as given in US12723105 (BEIJING STARMAB BIOMED TECHNOLOGY, dated 2026).

T1: human LAG3 (human, UniProt P18627 29-450, limits assumed)
T1 construct: also called hLAG3
T1 sequence: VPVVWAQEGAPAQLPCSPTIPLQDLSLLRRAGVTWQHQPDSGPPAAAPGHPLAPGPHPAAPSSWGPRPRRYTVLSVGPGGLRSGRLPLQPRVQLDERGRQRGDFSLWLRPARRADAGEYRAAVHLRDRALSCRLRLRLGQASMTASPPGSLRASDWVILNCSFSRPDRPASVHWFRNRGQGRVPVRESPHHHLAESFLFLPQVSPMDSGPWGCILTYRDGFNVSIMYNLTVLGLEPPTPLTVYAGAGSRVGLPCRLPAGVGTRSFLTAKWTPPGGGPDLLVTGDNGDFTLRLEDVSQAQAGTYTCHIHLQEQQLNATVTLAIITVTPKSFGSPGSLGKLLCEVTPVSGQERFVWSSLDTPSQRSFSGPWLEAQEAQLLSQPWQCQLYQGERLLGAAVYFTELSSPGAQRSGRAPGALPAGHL


target: Human CD33 (human, UniProt P20138 18-259); assay: BLI (Octet) as in Example 1, His-tagged VHH, human CD33
Sequence (P20138 18-259 limits assumed): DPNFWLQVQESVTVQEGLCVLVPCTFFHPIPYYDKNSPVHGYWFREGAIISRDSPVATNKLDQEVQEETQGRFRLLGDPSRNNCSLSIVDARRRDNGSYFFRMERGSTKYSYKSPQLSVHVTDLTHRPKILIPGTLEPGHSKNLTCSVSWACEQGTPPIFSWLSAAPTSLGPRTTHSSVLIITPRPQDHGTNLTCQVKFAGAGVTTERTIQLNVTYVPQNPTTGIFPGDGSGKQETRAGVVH

Binder	Kd [nM]	koff [s⁻¹]	kon [M⁻¹ s⁻¹]
33-14 (VHH, not shown: C-terminal His-tag) VHH: QVQLVESGGGLVQAGDSLKLSCAASGRTSLILAMAWWRQAPGKEREFAGRIWWNNDMTRYSDSVKGRFTISKDNTKNMVYLRMDNLGPEDTAVYYCEADLIGGSRGWGQGTQVTVSS	0.136	0.000109	800000
33-1 (VHH, not shown: C-terminal His-tag) VHH: QVQLVESGGGLVQTGGSLRLSCAASGGTFTNYAMGWFREAPGKEREFVAGINNNGDTLYNTNSVKGRFTISRDNAKNTVYLHMNSLKLEDTAVYYCAANLKGASWYSANYDYWGQGTQVTVSS	1.01	0.00081	800000
33-2 (VHH, not shown: C-terminal His-tag) VHH: QVQLVESGGGLVQAGGSLRLSCTASANILRTAPMAWYRQAPGKQREFVALITADGTTDYQESVKGRFTTSRDNAKNTVYLQMNSLQSEDTARYFCKVYSYWGQGTQVTVSS	0.753	0.0006	800000
33-4 (VHH, not shown: C-terminal His-tag) VHH: QVQLVESGGGSVQPGGSLRLSCEASGSIFSIAHMGWYRQAPGKQRELVAVISSGGRTNYVDSVKGRFTISRDNAKNTVYLQMNSLKAEDTAVYFCNVAVVGGPRFDYWGQGTQVTVSS	0.995	0.0009	900000
33-8 (VHH, not shown: C-terminal His-tag) VHH: EVQLMESGGGLVQAGGSLRLSCAASGRTVSTYVMGWFRQAPGKEREFVAEINRIGDTLYNRTSVKGRFTISRDNAKNTVYLQMNSLEPEDTAVYSCAARVIGTSTYNYWGQGTQVTVSS	0.511	0.0007	1.1e+06
33-13 (VHH, not shown: C-terminal His-tag) VHH: QVQLVESGGGLVQAGGSLRLSCAASGSISSINSMNWYRQAPGKQREKVAGINSSGDTNYVDSVKGRFTISRDNAERTTYLQMNNLKPEDTGLYYCNADPRPWPNDVAFGSWGQGTRVTVSS	0.409	0.0005	1e+06

target: T1, human LAG3; assay: BLI (Octet) as in Examples 1-4, His-tagged VHH, human LAG3

Binder	Kd [nM]	koff [s⁻¹]	kon [M⁻¹ s⁻¹]
LG2 (VHH, not shown: C-terminal His-tag) VHH: QVQLVESGGGLVQPGGSLRLSCAASGTIFSINAMGWYRQAPGKQRELVAIVTFGGSTNYADSVKGRFTISRDNAKNTVYLQMNSLKPEDTAVYYCSARNVQSPVQYHLAVWGQGTLVTVSS	630	0.021	33300
LG6 (VHH, not shown: C-terminal His-tag) VHH: EVQLVESGGGLVQAGGSLRLSCAVSGSIFSISTMGWYRQAPGKQRELVASITARGSADYADSVKGRFTISRDNAKNTVYLQMSSLKPEDTAVYYCNTDTRSTLYHYSWGQGTQVTVSS	19	0.000522	27500
hLG9 (VHH, also called LG9H; not shown: C-terminal His-tag) VHH: EVQLLESGGGLVQPGGSLRLSCAASGSTIDDYPMSWFRQAPGKGREGVAAIDDSDESTYYADSVKGRFTISRDNSKNTLYLQMNSLRAEDTAVYYCARGAIFMIDGVDVFLTYYYDSWGQGTLVTVSS	2.71	0.000298	110000
LG9 (VHH, not shown: C-terminal His-tag) VHH: EVQLVESGGGLVQPGGSLRLSCAASGSTIDDYPIGWFRQAPGKEREGVSCIDDSDESTYYADSVKGRFTISRDNAKNTVYLQMNSLKPEDTAVYYCARGAIFMIDGVDVFLTYYYDSWGQGTQVTVSS	1.77	0.00011	62100
LG99 (VHH, not shown: C-terminal His-tag) VHH: EVQLLESGGGLVQPGGSLRLSCAASGSTIDDYPMSWFRQAPGKGREGVAAIDDSDESTYYADSVKGRFTISRDNSKNTLYLQMNSLRAEDTAVYYCARGALFMIDGVDVFLTYYFEFWGQGTLVTVSS	0.0792	2.91e-05	367000
LG19 (VHH, not shown: C-terminal His-tag) VHH: QVQLVESGGGLVQPGGSLRLSCAASGFTLDYYAIGWFRQAPGKEREGVSCISSSDGSTYYADSVKGRFTISRDNAKNTVYLQMNSLKPEDTAVYYCAADRRGSCRQYDYWGQGTQVTVSS	0.114	1.09e-05	87000
LG22 (VHH, not shown: C-terminal His-tag) VHH: EVQLVESGGGLVQPGGSLRLSCAASGFTLDYYAIGWFRQAPGKEREGVSCIINSDGSTYYADSVKGRFTISRDNAKNTVYLQMNSLKPEDTAVYYCATDRYSDCRGPYDYWGQGTQVTVSS	0.267	1.14e-05	42700
LG-D8 (VHH, not shown: C-terminal His-tag) VHH: QVQLVESGGGLVQPGGSLRLSCAASGFTFGKYAMSWVRQVPDKGLEWVSSISSSGRDTSYADSAKGRFTIFRNNAANTVYLQMDNLKLEDTGVYYCVKCLEVWATREYDGWGQGTQVTVSS	2.98	9.82e-05	33000

target: T2, human CD47 (R & D systems) (human, UniProt Q08722 19-139); assay: BLI (Octet), His-tagged VHH on anti-penta-His tips, soluble human CD47
T2 construct: The Octet analyte was bought (R&D Systems); also called Human CD47 antigen; hCD47

Binder	Kd [nM]	koff [s⁻¹]	kon [M⁻¹ s⁻¹]
A09-08 (VHH, not shown: C-terminal His-tag) VHH: QVQLVESGGGLVQAGGSLRLSCAASGYGVNSYALGWFRQAPGKEREFVAAISRSGGNINYADSAKGRFTISRDNFKNTTYLQMSSLKPEDTAVYYCAAHYLLLPSYISTSTNMYNYWGQGTQVTVSS	0.063	2.1e-06	33300
A09-006 (VHH, also called A09-06; not shown: C-terminal His-tag) VHH: QVQLVESGGGLVQAGGSLRLSCAASGIRFFGSALGWFRQAPGKEREFVAAISRSGGNINYADSAKGRFTISRDNFKNTTYLQMSSLKPEDTAVYYCAAHYLLLPSYISTSTNMYNYWGQGTQVTVSS	0.0114	1.09e-06	87000
A09-31 (VHH, not shown: C-terminal His-tag) VHH: QVQLVESGGGLVQAGGSLRLSCAASGYGVNSYALGWFRQAPGKEREFVAAISRSGGNINYADSAKGRFTISRDNFKNTTYLQMSSLKPEDTAVYYCAAHYLLLPSYIATAIKMYNYWGQGTQVTVSS	19	0.000522	27500
A09-61 (VHH, not shown: C-terminal His-tag) VHH: QVQLVESGGGLVQAGGSLRLSCAASGYGVNSYALGWFRQAPGKEREFVAAISRSGGNINYADSAKGRFTISRDNFKNTTYLQMSSLKPEDTAVYYCAAHYLLLPSYISFASKMYNYWGQGTQVTVSS	1.77	0.00011	62100
A09-10 (VHH, not shown: C-terminal His-tag) VHH: QVQLVESGGGLVQAGGSLRLSCAASGGGRTFSNYALGWFRQAPGKEREFVAAISRSGGNINYADSAKGRFTISRDNFKNTTYLQMSSLKPEDTAVYYCAAHYLLLPSYISTSTNMYNYWGQGTQVTVSS	0.0267	1.14e-06	42700
hA09-10 (VHH, also called humanized A09-10; not shown: C-terminal His-tag) VHH: EVQLVESGGGLVQPGGSLRLSCAASGGGRTFSNYALGWFRQAPGKEREFVAAISRSGGNINYADSVKGRFTISRDNAKNTVYLQMSSLRAEDTAVYYCAAHYLLLPSYISTSTNMYNYWGQGTQVTVSS	0.0276	1.1e-06	39800

target: T3, Human PD-L1 antigen (human, UniProt Q9NZQ7 19-238); assay: BLI (Octet), His-tagged VHH on anti-penta-His tips, soluble human PD-L1
T3 construct: also called PD-L1 protein
T3 sequence (Q9NZQ7 19-238 limits assumed): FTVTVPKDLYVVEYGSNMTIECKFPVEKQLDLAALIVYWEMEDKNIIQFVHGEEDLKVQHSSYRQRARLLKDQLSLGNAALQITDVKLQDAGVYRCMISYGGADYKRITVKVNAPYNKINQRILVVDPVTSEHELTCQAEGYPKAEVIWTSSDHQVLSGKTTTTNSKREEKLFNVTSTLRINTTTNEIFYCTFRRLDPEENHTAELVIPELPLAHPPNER

Binder	Kd [nM]	koff [s⁻¹]	kon [M⁻¹ s⁻¹]
PL2 (VHH, not shown: C-terminal His-tag) VHH: QVQLVESGGGLVQAGGSLRLSCAVSGLTLSRYTMAWFRQAPGKEREFVAAIIRNSVSTFHEESVKGRFTISRDNVKNMMYLQMNTLKPEDTAVYYCATNVGPTGGFSLQSVQRYDAWGQGTQVTVSS	630	0.021	33300
PL11 (VHH, not shown: C-terminal His-tag) VHH: QVQLVESGGGLVQAGGSLRLSCAASGRTFNTYDMGWFRRAPGKEREFVAGIDWYTTNTYYADSVKGRFTISRDNAKNTVYLQMRSLKPEDTAVYYCAAGIRSTATITGQADYWGQGAQVTVSS	19	0.000522	27500
PL17 (VHH, not shown: C-terminal His-tag) VHH: QVQLVESGGGLVQAGGSLRLSCAASGRTFNTYDMGWFRRTPGKEREFVAGMDWNTINTYYADSVKGRFTISRDNAKNTVYLQMRSLKPEDTAVYYCAAGIRSTAIITGQADYWGQGTQVTVSS	0.0114	1.09e-06	87000
PL14 (VHH, not shown: C-terminal His-tag) VHH: EVQLVESGGGLVQAGGSLRLSCAASGSTSGIYDMGWYRQAPGKLREVVGIITSGGTTNYADFAKGRFTISRDNAKNMMYLQMNSLKPEDTAVYYCNIRTRLIIWGQGTQVTVSS	0.0177	1.1e-06	62100
PL16 (VHH, not shown: C-terminal His-tag) VHH: QVQLVESGGGLVQAGGSLRLSCAFSGGTFLTYSLGWFRQGPGKEREFVASINWSGYMTSYVDSVKGRFTISRDNAKNTVYLQMNSLKPEDTALYYCAAARTAIAAKRSSEFDYWGQGAQVTVSS	0.0271	2.98e-06	110000
PL18 (VHH, not shown: C-terminal His-tag) VHH: EVQLVESGGGLVQAGGSLRLSCAASGRTFNIYSMAWFRQAPGKEREFVVRINWNRGTTYYADSVKGRFTISRDNAKNTVYLQMSNLKPEDTAVYYCAARGSPSTIGAFTSASHYDYWGQGTQVTVSS	2.67	0.000114	42700
